System: MS2 coat protein
Test: apparent KD of MS2 coat protein; designed switch direction (-1 OFF switch, 1 ON switch): -1; higher = weaker reporter binding
In short: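 On Illumina chips, designed RNA switches with common flanks were made by stalled E. coli RNA polymerase. Titrations with SNAP-549-labelled MS2 coat protein, doubling from 0.7 or 1.5 nM to 3 µM, were done with no input, with 200 uM small-molecule ligand, or with an oligonucleotide input. Apparent KD is the median per design over clusters, from curve fits of normalised cluster fluorescence.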

[1] = Eterna round: R95, input ligand: microRNA oligo, concentration not stated
[2] = Eterna round: R95, input ligand: FMN 200 uM
[3] = Eterna round: R95, input ligand: none
[4] = input ligand: microRNA oligo, concentration not stated

Sequence: GACGUGUGAGGAUAUGCCGUGCCGGUCCGGAAGGUUCGGGUGCAGAAGGCACAUGAGGAUCACCCAUGUGUAAG [Excls4-VI] (puzzle: Exclusion 4)
- apparent KD of MS2 coat protein [1]: 17.7 nM

Sequence: GACUGACAUGAGGAUCACCCAUGUAAGGAUAUAGGGAACGUCGUUCCGCAACCCGCGCCUAGAAGGUACAAGGU [EX1 C.11] (Eterna round: R97, puzzle: Exclusion 1)
- apparent KD of MS2 coat protein (input ligand: FMN 200 uM): 18.2 nM
- apparent KD of MS2 coat protein (input ligand: none): 16.1 nM

Sequence: GACUGCCGAGGAUAUACAUGAGGAUCACCCAUGUGCUUCAGCAUUUUUUGAUGCAUGGGUAGAAGGCGGUAGUU [LRO-Excl3-15] (puzzle: Exclusion 3)
- apparent KD of MS2 coat protein [1]: 341 nM

Sequence: GACUUCCGAGGAUAUACAUGAGGAUCACCCAUGUGCUUCAGCAUUUUUUGAUGCAUGGGUAGAAGGCGGUAGUU [LRO-Excl3-16] (puzzle: Exclusion 3)
- apparent KD of MS2 coat protein [1]: 226 nM

Sequence: GACUUCUCUGAGGAUAUUGCAUCAUACGAUAAAUAAGAAGGCAGAACAUGAGGAUCACCCAUGUGGGUUUUAAG [Bingo-Bango-33] (Eterna round: R97, puzzle: Exclusion 6)
- apparent KD of MS2 coat protein (input ligand: FMN 200 uM): 137 nM
- apparent KD of MS2 coat protein (input ligand: none): 104 nM

Sequence: GACUUGUCAGGAUAUCUUACAUUUGCAUCGUAGUUACCGUUGGAGAAGGGACAUGAGGAUCACCCAUGUUUGGC [tap-tap-tappy24] (Eterna round: R97, puzzle: Exclusion 4)
- apparent KD of MS2 coat protein (input ligand: FMN 200 uM): 26.6 nM
- apparent KD of MS2 coat protein (input ligand: none): 28.9 nM

Sequence: GAGAAACAUGAGGAUCACCCAUGUGAGGAUAUGAGCACGCCGGUGACGGUGAUAAGAAUCAGAAGGCACAAAGG [Mat - Exclusion 1 - JL Mod - D33] (Eterna round: R97, puzzle: Exclusion 1)
- apparent KD of MS2 coat protein (input ligand: FMN 200 uM): 422 nM
- apparent KD of MS2 coat protein (input ligand: none): 67.6 nM

Sequence: GAGAAACAUGAGGAUCACCCAUGUGAGGAUAUGAGCACGCCGGUGACGGUGAUAAGAAUCAGAAGGCACAUUAA [Mat - Exclusion 1 - JL Mod - D34] (Eterna round: R97, puzzle: Exclusion 1)
- apparent KD of MS2 coat protein (input ligand: FMN 200 uM): 95.7 nM
- apparent KD of MS2 coat protein (input ligand: none): 38.8 nM

Sequence: GAGAAACAUGAGGAUCACCCAUGUGAGGAUAUGCGUACGUUGUCCGUAGGCGACGUGCGCAGAAGGCGCAAAAG [Mat - Mod of JL D87] (puzzle: Exclusion 1)
- apparent KD of MS2 coat protein [2]: 59 nM
- apparent KD of MS2 coat protein [1]: 53.5 nM
- apparent KD of MS2 coat protein [3]: 96 nM

Sequence: GAGAAACAUGAGGAUCACCCAUGUGAGGAUAUGCGUACGUUGUCCGUAGGCGACGUGCGCAGAAGGCGCAAAGG [Mat - Mod of JL D86] (puzzle: Exclusion 1)
- apparent KD of MS2 coat protein [1]: 54.2 nM

Sequence: GAGAAAUUAUAGGAUAUCGUAAGGAUAAUUUAACGAGAAGGAUGAACAUGAGGAUCACCCAUGUGGUAUCAUGG [JL-ex6-3.12] (puzzle: Exclusion 6)
- apparent KD of MS2 coat protein [2]: 191 nM
- apparent KD of MS2 coat protein [1]: 184 nM
- apparent KD of MS2 coat protein [3]: 465 nM

Sequence: GAGAACGUAGGAUAUACAUGAGGAUCACCCAUGUGAGGAAGGAGUAGGAAGCGUGGAAGUAGAAGGACGGAGAG [JR_Exclu3_Sub073] (puzzle: Exclusion 3)
- apparent KD of MS2 coat protein [2]: 57.6 nM
- apparent KD of MS2 coat protein [1]: 40.6 nM
- apparent KD of MS2 coat protein [3]: 24.5 nM

Sequence: GAGAAGGUAGGAUAUACGAAUAAAUAGGGUAGUAAGAAGACACAUGAGGAUCACCCAUGUAGAAGGACCAAGAG [Mat - Exclusion 2 - Mod of my Tesla design - D37] (puzzle: Exclusion 2)
- apparent KD of MS2 coat protein [2]: 34.6 nM
- apparent KD of MS2 coat protein [1]: 19.2 nM
- apparent KD of MS2 coat protein [3]: 21.8 nM

Sequence: GAGAAGUGAGGAUAUGCGGUAAGGAUGAAAGGAAGGAAUGAGUAGAAGGCACAUGAGGAUCACCCAUGUAGAGU [JR_Exclu4_Sub081] (puzzle: Exclusion 4)
- apparent KD of MS2 coat protein [2]: 19.5 nM
- apparent KD of MS2 coat protein [1]: 18.5 nM
- apparent KD of MS2 coat protein [3]: 21.1 nM

Sequence: GAGAUGUGAGGAUAUCUAGACCAUGGAAAAGCCACGGUCCGAGAGAAGGCACAUGAGGAUCACCCAUGUGAUGA [Quedte] (puzzle: Exclusion 4)
- apparent KD of MS2 coat protein [1]: 43.7 nM

Sequence: GAGAUGUGAGGAUAUCUAGACCGCGGCAGAGCUGCGGUCCGAGAGAAGGCACAUGAGGAUCACCCAUGUGAUGA [Beriesan] (puzzle: Exclusion 4)
- apparent KD of MS2 coat protein [1]: 47.3 nM

Sequence: GAGCACUGCCGAGGAUAUCCACAUGAGGAUCACCCAUGUAGUGAAAAGUCCCAGUAGAACCAAAUGGAGAAGGUGGCAAGAUAU [Eternabot solution 21] (Eterna round: R96, puzzle: Exclusion NG 2)
- apparent KD of MS2 coat protein (input ligand: FMN 200 uM): 23.2 nM
- apparent KD of MS2 coat protein [4]: 20 nM
- apparent KD of MS2 coat protein (input ligand: none): 17.9 nM

Sequence: GAGCCAUCGUGAGAUGGCUCAAUUACAUGAGGAUCACCCAUGUAGGAUAUCGAUUGCUUUGCAGUCGAGAAGGACAUGUUUAAU [JL ENG3 3.00] (Eterna round: R96, puzzle: Exclusion NG 3)
- apparent KD of MS2 coat protein (input ligand: FMN 200 uM): 67.4 nM
- apparent KD of MS2 coat protein [4]: 25.8 nM
- apparent KD of MS2 coat protein (input ligand: none): 30.3 nM

Sequence: GAGCUAUGAGGAUAUGCAUAGAUACGGAUUCGUGUAGUACUACAUGAGGAUCACCCAUGUAGAAGGCGUGGCUG [JL-ex2-2.02 mat747 mod] (puzzle: Exclusion 2)
- apparent KD of MS2 coat protein [1]: 15.4 nM

Sequence: GAGCUAUGAGGAUAUGCAUAUAUACGGAUUCGUGUAGUACUACAUGAGGAUCACCCAUGUAGAAGGCGUGGCUG [JL-ex2-2.03 mat747 mod] (puzzle: Exclusion 2)
- apparent KD of MS2 coat protein [1]: 13.2 nM

Sequence: GAGCUAUGAGGAUAUGCAUAUAUACGGAUUCGUGUGGUACUACAUGAGGAUCACCCAUGUAGAAGGCGUGGCUG [JL-ex2-2.04 mat747 mod] (puzzle: Exclusion 2)
- apparent KD of MS2 coat protein [1]: 16.2 nM

Sequence: GAGGAACAUGAGGAUCACCCAUGUAAGGAUAUGCAAAGAGAGAAAGAAGAAGGAGAAAGCAGAAGGUACAAGGA [JR_Exclu1_Sub073] (puzzle: Exclusion 1)
- apparent KD of MS2 coat protein [2]: 42.7 nM
- apparent KD of MS2 coat protein [1]: 35.1 nM
- apparent KD of MS2 coat protein [3]: 54.2 nM

Sequence: GAGGAACAUGAGGAUCACCCAUGUAAGGAUAUGCAAAGAGAGGUAGUAGAAGGAGAAGGCAGAAGGUACAAGGA [JR_Exclu1_Sub074] (puzzle: Exclusion 1)
- apparent KD of MS2 coat protein [2]: 47.7 nM
- apparent KD of MS2 coat protein [1]: 36.1 nM
- apparent KD of MS2 coat protein [3]: 50 nM

Sequence: GAGGACUUAGGAUAUACAUGAGGAUCACCCAUGUCCCUAAGCAUGCGACAGCCCUCGAGUAGAAGGGAGGACCA [Eternabot (Original) Solution 3] (Eterna round: R97, puzzle: Exclusion 3)
- apparent KD of MS2 coat protein (input ligand: FMN 200 uM): 14.8 nM
- apparent KD of MS2 coat protein (input ligand: none): 14.7 nM

Sequence: GAGGAGCAAGGAUAUACGAGGAUAUGGUAGUUUGUAGAGUGACAUGAGGAUCACCCAUGUAGAAGGUGCGAGGG [JR_Exclu2_Sub099] (puzzle: Exclusion 2)
- apparent KD of MS2 coat protein [1]: 41.7 nM

Sequence: GAGGCAUGCCGAGGUCCACACAUGAGGAUCACCCAUGUCAUGACAGGCUUUUUACUCGUUUUAUCGCUAUCGCGUUC [Vebizaledi] (puzzle: Sensor v3, turn-off variant 1)
- apparent KD of MS2 coat protein [2]: 84.8 nM
- apparent KD of MS2 coat protein [1]: 159 nM
- apparent KD of MS2 coat protein [3]: 70.7 nM

Sequence: GAGUACAGAGGAUAUACAUGAGGAUCACCCAUGUGUUUCAGCUAGGAGACUAGCGAAAGUAGAAGGCUGUACUU [salish99_ex3_r4_005] (Eterna round: R97, puzzle: Exclusion 3)
- apparent KD of MS2 coat protein (input ligand: FMN 200 uM): 25.7 nM
- apparent KD of MS2 coat protein (input ligand: none): 8.49 nM

Sequence: GAGUACUGAGGAUAUACAUGAGGAUCACCCAUGUGUUCCAACUAGGAAUCUAGAAUGUGUAGAAGGCAGUGCUG [salish99_ex3_r4_703] (Eterna round: R97, puzzle: Exclusion 3)
- apparent KD of MS2 coat protein (input ligand: FMN 200 uM): 298 nM
- apparent KD of MS2 coat protein (input ligand: none): 262 nM

Sequence: GAGUAGGGAGGAUAUACGUGCUCAAUCCCGGAAAGCGGGAAACAUGAGGAUCACCCAUGUAGAAGGCCCAUAAA [Riisen] (puzzle: Exclusion 2)
- apparent KD of MS2 coat protein [1]: 68.4 nM

Sequence: GAGUAGUAAGGAUAUGUCUCUGGUGGCUUCGGUCACUAGAGGCAGAAGGUACAUGAGGAUCACCCAUGUUCCUC [ExDelusion 7 - Jieux - Exclusion 4] (Eterna round: R97, puzzle: Exclusion 4)
- apparent KD of MS2 coat protein (input ligand: FMN 200 uM): 220 nM
- apparent KD of MS2 coat protein (input ligand: none): 55.2 nM

Sequence: GAGUGACAUGAGGAUCACCCAUGUAAGGAUAUACGGUUGGUAGAGAGAGGGAAAAGAGGUAGAAGGUACGAAGG [JR_Exclu1_Sub056] (puzzle: Exclusion 1)
- apparent KD of MS2 coat protein [2]: 43.9 nM
- apparent KD of MS2 coat protein [1]: 56 nM
- apparent KD of MS2 coat protein [3]: 76.2 nM

Sequence: GAGUGACAUGAGGAUCACCCAUGUGAGGAUAUCCGAUGGACCAAAUUAACAAUAGAAGGGAGAAGGCACAUAAA [Exclusion 1 V7] (puzzle: Exclusion 1)
- apparent KD of MS2 coat protein [2]: 162 nM
- apparent KD of MS2 coat protein [1]: 127 nM
- apparent KD of MS2 coat protein [3]: 131 nM

Sequence: GAGUGACAUGAGGAUCACCCAUGUGAGGAUAUCGGACGGACCAAAUUAACAUCCGCCGCGAGAAGGCACAUCGG [Exclusion 1 V22] (puzzle: Exclusion 1)
- apparent KD of MS2 coat protein [1]: 69.4 nM

Sequence: GAGUGACAUGAGGAUCACCCAUGUGAGGAUAUGCGAUGGACCAAAUUAACAAUAGAAGGCAGAAGGCGCAUAAA [Exclusion 1 V9] (puzzle: Exclusion 1)
- apparent KD of MS2 coat protein [2]: 41.4 nM
- apparent KD of MS2 coat protein [1]: 34.8 nM
- apparent KD of MS2 coat protein [3]: 41.1 nM

Sequence: GAGUGAUAAGGAUAUACAUGAGGAUCACCCAUGUGCUUCAGCUAGGAGACUAGCAUUGGUAGAAGGUAUUACUC [Mod of lroppy 11 - Jieux - Exclusion 3] (Eterna round: R97, puzzle: Exclusion 3)
- apparent KD of MS2 coat protein (input ligand: FMN 200 uM): 54.3 nM
- apparent KD of MS2 coat protein (input ligand: none): 18.7 nM

Sequence: GAGUGCUGAGGAUAUACAUGAGGAUCACCCAUGUGCUUCAGCUAGGAGACUAGCAUUGGUAGAAGGCAGUACUC [LRO-Excl3-01] (puzzle: Exclusion 3)
- apparent KD of MS2 coat protein [1]: 11.1 nM

Sequence: GAGUGCUGAGGAUAUACAUGAGGAUCACCCAUGUGCUUCAGCUAGGAGACUAGCAUUGGUAGAAGGCAGUACUC [Mod of lroppy - Jieux - Exclusion 3] (Eterna round: R97, puzzle: Exclusion 3)
- apparent KD of MS2 coat protein (input ligand: FMN 200 uM): 76.8 nM
- apparent KD of MS2 coat protein (input ligand: none): 12.4 nM

Sequence: GAGUGCUGAGGAUAUACAUGAGGAUCACCCAUGUGCUUCAGCUAGGAGACUAGCAUUGGUAGAAGGUAGUACUC [LRO-Excl3-02] (puzzle: Exclusion 3)
- apparent KD of MS2 coat protein [1]: 10.6 nM
